In general, % inhibition refers to the relative decrease from the control value, in per cent. What is called IC50 is the concentration at which inhibition is half-maximal. What is called Kd is the constant that tells how readily two partners part at equilibrium. In general, koff refers to a measure of how fast the partners let go of each other. As usually defined, the kon is the second-order rate constant of association.

Experiment [1] concerns the target purified recombinant galectin-3 (gal3) (UniProt P17931). Kind of experiment: solid phase assay, inhibition of gal3 binding to asialofetuin.
For experiment [2], the target named is gal4. Kind of experiment: solid phase assay, inhibition of gal4 binding to asialofetuin.
Experiment [3] addresses purified recombinant galectin-3 (gal3) (UniProt P17931). Briefly: solid phase assay, inhibition of gal3 binding to plate-bound asialofetuin (competitor).
The target is the same in experiment [4]. Briefly: SPR (Biacore T200), biotinylated gal3 captured on SA chip, TFD100 0.312-10 nM, 1:1 binding model. (In general: In SPR one partner is held on a chip, and binding of the other changes the refractive index at the surface.)
Experiment [5] shares this target. Kind of experiment: SPR (Biacore T200), biotinylated gal3 captured on SA chip, 1:1 binding model.
Experiment [6] deals with N-terminal of gal9 (gal9N). Briefly: solid phase assay, inhibition of gal9N binding to asialofetuin.
The target of experiment [7] is purified recombinant galectin-3 (gal3) (UniProt P17931). Kind of experiment: SPR (Biacore T200), derived from the dissociation rate.
purified recombinant galectin-3 (gal3), sequence (P17931 whole entry, the tested form may be a part): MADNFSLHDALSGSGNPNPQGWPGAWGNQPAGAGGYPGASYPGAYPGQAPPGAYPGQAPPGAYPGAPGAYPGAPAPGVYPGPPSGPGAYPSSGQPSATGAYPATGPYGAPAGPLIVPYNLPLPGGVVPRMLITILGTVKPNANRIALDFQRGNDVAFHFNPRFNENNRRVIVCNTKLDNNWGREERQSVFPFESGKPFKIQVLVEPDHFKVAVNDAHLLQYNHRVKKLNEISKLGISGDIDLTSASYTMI
In experiment [8] the target is gal4. Kind of experiment: solid phase assay, inhibition of gal4 binding to plate-bound asialofetuin (competitor), anti-galectin antibody detection.
The target in experiment [9] is N-terminal of gal9 (gal9N). Briefly: solid phase assay, inhibition of gal9N binding to plate-bound asialofetuin (competitor), anti-galectin antibody detection.
In experiment [10] the target is purified recombinant galectin-3 (gal3) (UniProt P17931). Briefly: solid phase assay, inhibition of gal3 binding to asialofetuin, molar basis.
In experiment [11] the target is gal3 on the surface of human PC3 and HUVEC cells (human) (UniProt P17931). Briefly: cell-based or functional assay.
gal3 on the surface of human PC3 and HUVEC cells (human), sequence (P17931 2-250): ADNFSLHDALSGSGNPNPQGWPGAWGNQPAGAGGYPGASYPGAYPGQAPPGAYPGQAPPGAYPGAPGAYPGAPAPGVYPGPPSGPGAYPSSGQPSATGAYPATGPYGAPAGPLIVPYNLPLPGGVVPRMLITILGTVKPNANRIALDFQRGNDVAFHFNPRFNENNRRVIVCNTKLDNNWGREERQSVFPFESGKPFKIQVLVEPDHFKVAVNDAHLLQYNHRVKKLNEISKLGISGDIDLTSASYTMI
Experiment [12] addresses gal3 on the surface of B16 melanoma cells (murine) (UniProt P16110). Briefly: cell-based or functional assay.
For experiment [13], the target named is purified recombinant galectin-3 (gal3) (UniProt P17931). Kind of experiment: cell-based or functional assay.
For experiment [14], the target named is prostate cancer patient serum-associated gal3 (human) (UniProt P17931). Kind of experiment: cell-based or functional assay.
prostate cancer patient serum-associated gal3 (human), sequence (P17931 2-250 limits assumed): as the sequence (P17931 2-250) above
Experiment [15] has as its target gal3 on the surface of B16 melanoma cells (murine) (UniProt P16110). Briefly: flow cytometry on B16 melanoma cells (unstained cells 214), control. (In general: Flow cytometry measures light scatter and fluorescence of single cells or particles in a stream.)
Experiment [16] deals with gal3 on the surface of human PC3 and HUVEC cells (human) (UniProt P17931). Briefly: flow cytometry on PC3 cells (unstained cells 205), control.
For experiment [17] the target is unchanged. Briefly: flow cytometry on HUVEC cells (unstained cells 97), control.

gal3 on the surface of B16 melanoma cells (murine), sequence (P16110 2-264): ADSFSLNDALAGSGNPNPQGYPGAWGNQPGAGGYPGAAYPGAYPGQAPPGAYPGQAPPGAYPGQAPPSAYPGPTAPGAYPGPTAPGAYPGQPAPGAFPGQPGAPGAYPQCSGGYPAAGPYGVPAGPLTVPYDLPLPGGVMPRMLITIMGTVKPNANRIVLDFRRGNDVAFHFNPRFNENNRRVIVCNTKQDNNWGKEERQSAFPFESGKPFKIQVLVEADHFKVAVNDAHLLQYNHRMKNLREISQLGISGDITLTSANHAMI

With O-glycosidase treated TFD100, the % inhibition at 6.2 nM in [1] stood at 45%.

Take “Fraction 2 (<50 kDa, >30 kDa) of cod anti-freeze glycoproteins”: in [1], the IC50 was 27 µg/mL and the RIA (relative inhibitory activity compared to lactose taken as 1) (relative to lactose = 1) came out at 1.

Turning to “Crude extract (crude anti-freeze glycoproteins of cod, A/F Protein)”, in experiment [1], the IC50 came to 108 µg/mL and the RIA (relative inhibitory activity compared to lactose taken as 1) (relative to lactose = 1) amounted to 0.25.

For the substance “Fraction 1 (>50 kDa) of cod anti-freeze glycoproteins”, in experiment [1], the IC50 is 2.5 µg/mL and the RIA (relative inhibitory activity compared to lactose taken as 1) (relative to lactose = 1) amounted to 10.5.

As to “TFD100 (Thomsen-Friedenreich disaccharide-containing glycopeptide of approximately 100 kDa purified from Pacific cod, Gadus macrocephalus)”, the RIA (relative inhibitory activity compared to lactose taken as 1) (fold vs lactose) with gal4 [2] was 8.33e+06. The IC50 in experiment [3] was determined as 0.25 nM. Further, the dissociation constant Kd in [4] came out at 0.0968 nM. Further, in [5], the koff stood at 0.0003 s⁻¹ and the kon was determined as 3.1e+06 M⁻¹ s⁻¹. Besides, in [1], the RIA (relative inhibitory activity compared to lactose taken as 1) (fold vs lactose) turned out to be 400000. In addition, the RIA (relative inhibitory activity compared to lactose taken as 1) (fold vs lactose) in experiment [6] came out at 66700. The half-life for the complex in [7] came out at 38.5 min. In the experiment with gal4 [8], this substance gave an IC50 of 1.2 nM. This substance yielded an IC50 in [9] of 1.5 nM. Besides, in [10], the fold activity in inhibiting gal3 binding compared to free TFD was 800000 fold. In [11], the inhibition of binding of calcein-labeled PC3 cells to HUVEC monolayer (PC3 pre-treated with 3.5 nM TFD100) was 33% and the inhibition of tumor-endothelial cell interactions (HUVEC monolayer pre-incubated with 3.5 nM TFD100) was found to be 45%. The apoptosis of activated tumor specific CD8+ T cells on a B16 monolayer with 3.5 nM TFD100 (about 53% without) in experiment [12] was 36 % apoptosis. Besides, in experiment [13], the apoptosis of activated pmel CD8+ T cells with 5 µM recombinant gal3 plus 3.5 nM TFD100 (˜76% with gal3 alone, ˜61% CD8 alone) is 72 % apoptosis; the inhibition of gal3 (5 µM)-induced apoptosis of MOLT-4 cells by 3.5 nM TFD100 (annexin V binding) came out at 34%; the inhibition of gal3 (5 µM)-induced apoptosis of human CD8+ T cells by 3.5 nM TFD100 is 77%; the inhibition of gal3 (5 µM)-mediated apoptosis of Jurkat cells by 3.5 nM TFD100 was found to be 63%. Besides, the apoptosis of activated tumor-specific CD8+ cells with patient serum plus 3.5 nM TFD100 (87-93% with patient serum alone) in [14] stood at 66 % apoptosis.

Take “pre-immune IgG (protein A-Sepharose purified pre-immune rabbit serum) (antibody)”: the mean fluorescence unit (mfu) worked out at 1000 mfu in experiment [15], 759 mfu in [16] and 95 mfu in experiment [17].

As to “Fraction 4 (<10 kDa, >3 kDa) of cod anti-freeze glycoproteins”, in [1], the IC50 amounted to 300 µg/mL and the RIA (relative inhibitory activity compared to lactose taken as 1) (relative to lactose = 1) was 0.09.

On to “Fraction 3 (<30 kDa, >10 kDa) of cod anti-freeze glycoproteins”, for which, in [1], the IC50 was found to be 82 µg/mL and the RIA (relative inhibitory activity compared to lactose taken as 1) (relative to lactose = 1) amounted to 0.33.

As to “Fraction 5 (<3 kDa) of cod anti-freeze glycoproteins”, the RIA (relative inhibitory activity compared to lactose taken as 1) (relative to lactose = 1) in experiment [1] is less than 0.06.

The values are drawn from US20120251580A1.
